Test results: IntAct's records for PubMed 10449590

B1: 14-3-3-like protein GF14 phi (Arabidopsis thaliana (Mouse-ear cress)), P46077 (parent)
chain: MAAPPASSSAREEFVYLAKLAEQAERYEEMVEFMEKVAEAVDKDELTVEERNLLSVAYKNVIGARRASWRIISSIEQKEESRGNDDHVTTIRDYRSKIESELSKICDGILKLLDTRLVPASANGDSKVFYLKMKGDYHRYLAEFKTGQERKDAAEHTLTAYKAAQDIANAELAPTHPIRLGLALNFSVFYYEILNSPDRACNLAKQAFDEAIAELDTLGEESYKDSTLIMQLLRDNLTLWTSDMQDESPEEIKEAAAPKPAEEQKEI
partner: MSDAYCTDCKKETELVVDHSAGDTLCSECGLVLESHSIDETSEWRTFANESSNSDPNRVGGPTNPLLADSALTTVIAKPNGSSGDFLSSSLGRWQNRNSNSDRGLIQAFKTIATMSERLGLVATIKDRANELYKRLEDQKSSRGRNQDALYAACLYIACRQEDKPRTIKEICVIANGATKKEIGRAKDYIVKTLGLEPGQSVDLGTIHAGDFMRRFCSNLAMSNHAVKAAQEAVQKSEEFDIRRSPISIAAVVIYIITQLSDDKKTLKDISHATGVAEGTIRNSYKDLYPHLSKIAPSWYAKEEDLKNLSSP
B2: 14-3-3-like protein GF14 phi (Arabidopsis thaliana (Mouse-ear cress)), P46077 (parent)
chain: B1 chain
partner: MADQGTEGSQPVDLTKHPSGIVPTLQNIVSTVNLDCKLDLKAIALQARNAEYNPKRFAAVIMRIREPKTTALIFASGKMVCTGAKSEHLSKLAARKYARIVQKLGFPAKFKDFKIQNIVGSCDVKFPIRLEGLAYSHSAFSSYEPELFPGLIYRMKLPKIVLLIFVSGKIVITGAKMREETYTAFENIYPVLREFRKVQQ
B3: Transcription initiation factor IIB (Homo sapiens), Q00403 (parent)
chain: MASTSRLDALPRVTCPNHPDAILVEDYRAGDMICPECGLVVGDRVIDVGSEWRTFSNDKATKDPSRVGDSQNPLLSDGDLSTMIGKGTGAASFDEFGNSKYQNRRTMSSSDRAMMNAFKEITTMADRINLPRNIVDRTNNLFKQVYEQKSLKGRANDAIASACLYIACRQEGVPRTFKEICAVSRISKKEIGRCFKLILKALETSVDLITTGDFMSRFCSNLCLPKQVQMAATHIARKAVELDLVPGRSPISVAAAAIYMASQASAEKRTQKEIGDIAGVADVTIRQSYRLIYPRAPDLFPTDFKFDTPVDKLPQL
partner: B1 chain
B4: 14-3-3 protein epsilon (Homo sapiens), P62258 (parent)
chain: MDDREDLVYQAKLAEQAERYDEMVESMKKVAGMDVELTVEERNLLSVAYKNVIGARRASWRIISSIEQKEENKGGEDKLKMIREYRQMVETELKLICCDILDVLDKHLIPAANTGESKVFYYKMKGDYHRYLAEFATGNDRKEAAENSLVAYKAASDIAMTELPPTHPIRLGLALNFSVFYYEILNSPDRACRLAKAAFDDAIAELDTLSEESYKDSTLIMQLLRDNLTLWTSDMQGDGEEQNKEALQDVEDENQ

Variants of: B1
Settings: with tf2b1_arath TFIIB1, P48512

Row | effect of a mutation on the interaction | Variant
1 | decreasing interaction | L184A;N185A
2 | disrupting interaction | F186A;S187A
3 | decreasing interaction | V188A;F189A

Variants of: B2
Settings: with tbp2_arath TBP2, P28148

Row | effect of a mutation on the interaction | Variant
4 | decreasing interaction | V188A;F189A
5 | disrupting interaction | F186A;S187A
6 | decreasing interaction | L184A;N185A

Variants of: B3
Settings: with 14334_arath GRF4, P46077

Row | effect of a mutation on the interaction | Variant
7 | decreasing interaction | R185E;R193E

Variants of: B4
Settings: with tbp_human TBP

Row | effect of a mutation on the interaction | Variant
8 | decreasing interaction | L175A;N176A
9 | disrupting interaction | F177A;S178A
10 | decreasing interaction | V179A;F180A
